# From the supplement of paper PMC7877785
# ± gives the uncertainty stated by the source.
# Test: self-splicing fitness, log relative to wild type (ln ratio); higher = more splicing; Tetrahymena group I intron in knt gene, E. coli kanamycin selection, DiMSum; sequences stand for … in CUCUCU…GGAGGGAAAAGUUAUCAGGCAUGCACCUGGUAGCUAGUCUUUAAACCAAUAGAUUGCAUCGGUUUAAAAGGCAAGACCGUCAAAUUGCGGGAAAGGGGUCAACAGCCGUUCAGUACCAAGUCUCAGGGGAAACUUUGAGAUGGCCUUGCAAAGGGUAUGGUAAUAAGCUGACGGACAUGGUCCUAACCACGCAGCCAAGUCCUAAGUCAACAGAUCUUCUGUUGAUAUGGAUGCAGUUCACAGACUAAAUGUCGGUCGGGGAAGAUGUAUUCUUCUCAUAAGAUAUAGUCGGACCUCUCCUUAAUGGGAGCUAGCGGAUGAAGUGAUGCAACACUGGAGCCGCUGGGAACUAAUUUGUAUGCGAAAGUAUAUUGAUUAGUUUUGGAGUACUCGUGGUCG
# In short: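 Six replicate transformations of E. coli BL21(DE3) with a pET-22b(+) library were grown overnight at 37°C or 30°C. The library randomised all eight P1ex-region intron nucleotides, the intron lying in the knt kanamycin-resistance gene, and plates were LB agar with or without 25 μg/mL kanamycin plus 100 μg/mL carbenicillin, 50 μM IPTG and 0.2% rhamnose. Pooled colonies were amplicon-sequenced on an Illumina HiSeq 2500, and fitness is the DiMSum error-weighted combination of wild-type-normalised replicate fold changes, kanamycin versus none.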
Sequence,self-splicing fitness (ln) (37 °C),self-splicing fitness (ln) (30 °C)
CGGAAGCAAUAUUACGAUAU,-2.82 ± 0.26,
CGGAAGCAAUAUUACGAUGU,-0.735 ± 0.14,-2.72 ± 0.19
CGGAAGCAAUAUUACGAUUC,-2.28 ± 0.45,-3.95 ± 0.43
CGGAAGCAAUAUUACGCAUU,-2.98 ± 0.29,-3.52 ± 0.3
CGGAAGCAAUAUUACGCCAU,-2.84 ± 0.32,-3.61 ± 0.34
CGGAAGCAAUAUUACGCGCG,-0.88 ± 0.24,-3.13 ± 0.33
CGGAAGCAAUAUUACGCGGG,-1.35 ± 0.18,-1.64 ± 0.16
CGGAAGCAAUAUUACGCUCU,-1.81 ± 0.44,
CGGAAGCAAUAUUACGGCUA,-0.623 ± 0.28,-2.54 ± 0.46
CGGAAGCAAUAUUACGGUGC,-2.28 ± 0.19,-3.17 ± 0.19
CGGAAGCAAUAUUACGUACC,-0.907 ± 0.085,-2.22 ± 0.066
CGGAAGCAAUAUUACGUAGA,-1.82 ± 0.19,-3.45 ± 0.2
CGGAAGCAAUAUUACGUAGU,-1.97 ± 0.13,-3.43 ± 0.14
CGGCAGCAAUAUUACGACGG,0.852 ± 0.15,-0.297 ± 0.088
CGGCAGCAAUAUUACGACUU,-0.196 ± 0.08,-0.541 ± 0.06
CGGCAGCAAUAUUACGAGCG,-0.441 ± 0.11,-0.946 ± 0.09
CGGCAGCAAUAUUACGAGGC,-2.53 ± 0.49,-2.99 ± 0.32
CGGCAGCAAUAUUACGAUCC,-1.03 ± 0.21,-2 ± 0.13
CGGCAGCAAUAUUACGAUUA,-2.17 ± 0.2,-2.86 ± 0.22
CGGCAGCAAUAUUACGCAAA,-2.43 ± 0.22,-2.77 ± 0.2
CGGCAGCAAUAUUACGCAUC,-2.39 ± 0.41,-3.25 ± 0.26
CGGCAGCAAUAUUACGCCCA,-0.0939 ± 0.14,0.189 ± 0.12
CGGCAGCAAUAUUACGCGUC,-2.4 ± 0.18,-4.09 ± 0.25
CGGCAGCAAUAUUACGCUAU,-2.75 ± 0.26,-3.57 ± 0.28
CGGCAGCAAUAUUACGGAAA,-2.7 ± 0.18,-3.57 ± 0.26
CGGCAGCAAUAUUACGGAAG,-0.442 ± 0.12,-1.07 ± 0.09

Sequence,self-splicing fitness (ln) (37 °C),self-splicing fitness (ln) (30 °C)
CGGCAGCAAUAUUACGGACG,-2.42 ± 0.28,-2.73 ± 0.21
CGGCAGCAAUAUUACGGACU,-1.34 ± 0.2,-2.26 ± 0.17
CGGCAGCAAUAUUACGGGGA,-3.07 ± 0.21,-3.21 ± 0.16
CGGCAGCAAUAUUACGGGUA,-2.84 ± 0.19,-3.66 ± 0.25
CGGCAGCAAUAUUACGUAUG,-0.303 ± 0.065,-1.55 ± 0.048
CGGCAGCAAUAUUACGUUAU,-2.56 ± 0.21,-2.5 ± 0.17
CGGCAGCAAUAUUACGUUUU,-2.09 ± 0.14,-3.75 ± 0.17
CGGGAGCAAUAUUACGAAGU,-1.89 ± 0.43,
CGGGAGCAAUAUUACGAGCC,,-0.749 ± 0.46
CGGGAGCAAUAUUACGAGGG,,-2.28 ± 0.29
CGGGAGCAAUAUUACGAUGG,-0.953 ± 0.24,-2.44 ± 0.2
CGGGAGCAAUAUUACGAUUG,-1.72 ± 0.34,-2.22 ± 0.46
CGGGAGCAAUAUUACGCACU,-2.65 ± 0.25,-2.4 ± 0.24
CGGGAGCAAUAUUACGCCGG,-1.81 ± 0.34,-2.87 ± 0.46
CGGGAGCAAUAUUACGCGCA,-0.737 ± 0.49,
CGGGAGCAAUAUUACGCGUC,-2.8 ± 0.27,-2.87 ± 0.22
CGGGAGCAAUAUUACGGAAG,-1.3 ± 0.17,-2.64 ± 0.18
CGGGAGCAAUAUUACGGCAU,-1.8 ± 0.35,
CGGGAGCAAUAUUACGGUAU,-2.36 ± 0.42,-3.81 ± 0.47
CGGGAGCAAUAUUACGGUGG,-2.43 ± 0.45,-3.1 ± 0.37
CGGGAGCAAUAUUACGUAUG,,-3.99 ± 0.35
CGGGAGCAAUAUUACGUGGG,,-2.97 ± 0.35
CGGGAGCAAUAUUACGUUCU,-1.49 ± 0.19,-3.58 ± 0.18
CGGUAGCAAUAUUACGAACG,-1.29 ± 0.14,-1.54 ± 0.13
CGGUAGCAAUAUUACGAGAG,-0.673 ± 0.11,-3.4 ± 0.19
